The target of the data set is T1, octanoyl-ACP (octanoyl-acyl carrier protein, E. coli K12 MG1655 ACP), P0A6A8.
T1 chain: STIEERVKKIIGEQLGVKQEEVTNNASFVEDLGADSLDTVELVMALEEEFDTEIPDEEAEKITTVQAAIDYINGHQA

B1: CpFatB1.2-M4 (ΔA54, N28S, I65M) (protein)
chain: MGSSHHHHHHSSENLYFQGGGGYAAHRDYHRVRCAGKRWTMFDRKSKRPSMLMDSFGLERVVQDGLVFRQSFSIRSYEICADRTASMETVMNHVQETSLNQCKSIGLLDDGFGRSPEMCKRDLIWVVTRMKIMVNRYPTWGDTIEVSTWLSQSGKIGMGRDWLISDCNTGEILVRATSVYAMMNQKTRRFSKLPHEVRQEFAPHFLDSPPAIEDNDGKLQKFDVKTGDSIRKGLTPGWYDLDVNQHVSNVKYIGWILESMPTEVLETQELCSLTLEYRRECGRDSVLESVTSMDPSKVGDRFQYRHLLRLEDGADIMKGRTEWRPKNAGTNGAISTGKT
As to B1, the “Km (DTNB thioesterase assay)” value was “the Km remained relatively low” and the “Vmax (DTNB thioesterase assay), fold relative to CpFatB1.2” value was 15.7 fold increase in Vmax over CpFatB1.2.
